The source of these data is patent publication US20110143963A1.

Where only a bound is given, the exact number is not on record here.

Usually Kd stands for the concentration at which binding is half-saturated. A low value points to tighter binding. For orientation: koff means the first-order rate constant of dissociation. Low values mean a long-lived complex, high ones a short-lived complex. For orientation: kon means a measure of how fast the partners come together. A lower kon goes with slower complex formation. For orientation: IC50 means the concentration at which inhibition is half-maximal. The low end stands for greater potency, the high end for weaker potency.

The target in test [1] is ARVCF peptide PQPVDSWV-COOH (eight-residue motif corresponding to the ARVCF C-terminus). Kind of test: SPR.
Test [2] has the same target. Briefly: SPR (BIAcore).
The target is the same in test [3]. Briefly: SPR, ratio of Kd. Background: Surface plasmon resonance follows binding to a sensor surface in real time, without labels.
For test [4] the target is unchanged. Kind of test: IC50 for the ARVCF peptide; method not stated with the table.
For test [5], the target named is δ-catenin peptide PASPDSWV-COOH. Briefly: SPR, ratio of Kd; ratio Kd(δ-catenin)/Kd(ARVCF) derived from the same SPR values, not a separate measurement.
Test [6] has the same target. Briefly: SPR (BIAcore); SPR, soluble ePDZ-b; only a lower bound on Kd (very weak binding); same conditions as the other rows.
Test [7] shares this target. Kind of test: SPR, ratio of Kd.
The target of test [8] is ARVCF peptide with Ala substitution at position -4. Briefly: SPR, Ala scan of the ARVCF peptide.
Test [9] has as its target SH2 domain of human Grb2 (human), P62993. Kind of test: panel E, competition phage ELISA: wtSH2 (Grb2-SH2) phages incubated with free pY1208 peptide (0 to about 2200 nM), phages not bound to the free peptide captured and detected.
In test [10] the target is SUMO-ARVCF fusion protein (yeast). Kind of test: SPR, equilibrium mode, target peptide fused to yeast SUMO.
For test [11], the target named is δ-catenin peptide PASPDSWV-COOH. Briefly: SPR.
Test [12] shares this target. Briefly: SPR (BIAcore).
Test [13] has the same target. Kind of test: SPR (BIAcore), column δ-Catenin; number at the left of panel F (on rate per paragraph 112), unit from the column head of Table 4.
For test [14] the target is unchanged. Briefly: SPR (BIAcore), column δ-Catenin; number at the right of panel F (off rate per paragraph 112), unit from the column head of Table 4.

Sequence of SH2 domain of human Grb2 (human), P62993 (P62993 56-153 limits assumed): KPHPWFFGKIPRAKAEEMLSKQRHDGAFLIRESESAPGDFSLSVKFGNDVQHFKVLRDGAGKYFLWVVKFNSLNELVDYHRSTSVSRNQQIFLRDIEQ

B1: enhanced PDZ-b (designed binder)
chain: MKHHHHHHHHHHSSDYKDDDDKGENLYFQGSPELGFSISGGVGGRGNPFRPDDDGIFVTRVQPEGPASKLLQPGDKIIQANGYSFINIEHGQAVSLLKTFQNTVELIIVREVGNGAKQEIRVRVEKDGGSGGVSSVPTNLEVVAATPTSLLISWDAYYDSHVSYYRITYGETGGNSPVQEFTVPGSKSTATISGLKPGVDYTITVYAHYNYHYYSSPISINYRT
In [1], B1 returned a Kd of 56 nM, a koff of 0.011 s⁻¹ and an association rate constant (kon) of 190000 M⁻¹ s⁻¹. The Kd in test [2] was 56 nM. Also, the Affinity Enhancement (Kd of cpPDZFN for ARVCF / Kd of the clamp) in test [3] was 520 fold. The same molecule yielded an IC50 in test [4] of 59 nM. Moreover, the Specificity Index (Kd for δ-catenin / Kd for ARVCF) in [5] was more than 178 fold. The molecule also gave a Kd in test [6] of more than 10000 nM.

B2: ePDZ-b1 (designed binder)
chain: MKHHHHHHHHHHSSDYKDDDDKGENLYFQGSPELGFSISGGVGGRGNPFRPDDDGIFVTRVQPEGPASKLLQPGDKIIQANGYSFINIEHGQAVSLLKTFQNTVELIIVREVGNGAKQEIRVRVEKDGGSGGVSSVPTNLEVVAATPTSLLISWDAYRELPVSYYRITYGETGGNSPVQEFTVPGSKSTATISGLKPGVDYTITVYAHYNYHYYSSPISINYRT
For the molecule B2, in test [1], the Kd turned out to be 5 nM, the koff was less than 0.00037 s⁻¹ and the kon was found to be 73000 M⁻¹ s⁻¹. In test [3], the Affinity Enhancement (Kd of cpPDZFN for ARVCF / Kd of the clamp) is 4960 fold. The Specificity Index (Kd for δ-catenin / Kd for ARVCF) in test [7] is more than 2000 fold. In test [8], this molecule came in with a fold reduction in affinity against the wild-type ARVCF peptide of more than 200 fold.
Turning to NEPLYLNTFANTC (modifications not checked) [peptide corresponding to residues 1204-1216 of ErbB4 receptor (pY1208)], the IC50 in test [9] worked out at 120 nM.

B3: circularly permutated PDZ domain (designed binder)
chain: PELGFSISGGVGGRGNPFRPDDDGIFVTRVQPEGPASKLLQPGDKIIQANGYSFINIEHGQAVSLLKTFQNTVELIIVREVGNGAKQEIRVRVEKD
In test [10], B3 had a Kd of 11000 nM.

B4: enhanced PDZ-a (designed binder)
chain: MKHHHHHHHHHHSSDYKDDDDKGENLYFQGSPELGFSISGGVGGRGNPFRPDDDGIFVTRVQPEGPASKLLQPGDKIIQANGYSFINIEHGQAVSLLKTFQNTVELIIVREVGNGAKQEIRVRVEKDGGSGGVSSVPTNLEVVAATPTSLLISWDASYYGVSYYRITYGETGGNSPVQEFTVPYSSSTATISGLKPGVDYTITVYAYSDYYGSHHYSPISINYRT
Consider B4, for which the Kd in [1] amounted to 56 nM; in test [11], 429 nM; in [2], 56 nM; in test [12], 430 nM. Also, the koff in test [1] came to 0.015 s⁻¹; in test [14], 0.11 s⁻¹. The kon turned out to be 290000 M⁻¹ s⁻¹ in test [1] and 250000 M⁻¹ s⁻¹ in [13]. The Affinity Enhancement (Kd of cpPDZFN for ARVCF / Kd of the clamp) in test [3] amounted to 520 fold. In [7], the Specificity Index (Kd for δ-catenin / Kd for ARVCF) was 8 fold. The molecule further gave a 50% inhibitory concentration (IC50) in test [4] of 40 nM.
